Laboratory results as given in patent publication US20040087783.

Biological target: denatured enolase

B1: N-terminal hexahistidine tagged SAD (protein)
chain: MRGSHHHHHHEPFLRRRLAFLSFFWDKIWPAGGEPDHGTPGSLDPNTDPVPTLPAEPCSPFPQLFLALYDFTARCGGELSVRRGDRLCALEEGGGYIFARRLSGQPSAGLVPITHVAKASPETLSDQPWYFSGVSRTQAQQLLLSPPNEPGAFLIRPSESSLGGYSLSVRAQAKVCHYRVSMAADGSLYLQKGRLFPGLEELLTYYKANWKLIQNPLLQPCMPQKAPRQDVWERPHSEFALGRKLGEGYFGEVWEGLWLGSLPVAIKVIKSANMKLTDLAKEIQTLKGLRHERLIRLHAVCSGGEPVYIVTELMRKGNLQAFLGTPEGRALRLPPLLGFACQVAEGMSYLEEQRVVHRDLAARNVLVDDGLACKVADFGLARLLKDDIYSPSSSSKIPVKWTAPEAANYRVFSQKSDVWSFGVLLHEVFTYGQCPYEGMTNHETLQQIMRGYRLPRPAACPAEVYVLMLECWRSSPEERPSFATLREKLHAIHRCHP
phosphorylation of substrate, in vitro kinase assay with 32P-ATP, autoradiography: SAD was able to phosphorylate both denatured enolase and poly-Glu-Tyr in vitro
